For 15 molecules, Binding Affinity to Mouse MHC Class I (percent increase of D^b or K^b on RMA-S cells) results are on record in patent EP1117687B1.

The assay deals with Mouse MHC Class I (mouse B6 class I antigens, H-2^b: D^b or K^b) on RMA-S cells (mouse). In words: RMA-S MHC stabilisation, flow cytometry with FITC anti-D^b or anti-K^b.
As to WT1 peptide P118-126 …, the Binding Affinity to Mouse MHC Class I (percent increase of D^b or K^b on RMA-S cells) was 2%.
To WT1 peptide P119-127 … belongs 2%; to WT1 peptide P120-128 …, 1%; to WT1 peptide P122-130 …, 1%.
To WT1 peptide P123-131 … belongs 1%.
To WT1 peptide P125-133 … belongs 1%.
As to WT1 peptide P128-136 …, the Binding Affinity to Mouse MHC Class I (percent increase of D^b or K^b on RMA-S cells) amounted to 1%.
In turn, WT1 peptide P130-138 … had a Binding Affinity to Mouse MHC Class I (percent increase of D^b or K^b on RMA-S cells) of 79%.
Regarding WT1 peptide p126-134 …, the Binding Affinity to Mouse MHC Class I (percent increase of D^b or K^b on RMA-S cells) is 79%.
As to QARMFPNAP [WT1 peptide P124-132 …], the Binding Affinity to Mouse MHC Class I (percent increase of D^b or K^b on RMA-S cells) came to 1%.
The same measure for MFPNAPYLP [WT1 peptide P127-135 …]: 2%.
For the molecule PNAPYLPSC [WT1 peptide P129-137 …], the Binding Affinity to Mouse MHC Class I (percent increase of D^b or K^b on RMA-S cells) is 1%.
Molecule SSGQARMFP [WT1 peptide P121-129 …] gave a Binding Affinity to Mouse MHC Class I (percent increase of D^b or K^b on RMA-S cells) of 1%.
To PSQASSGQA [WT1 peptide P117-125 …] belongs 2%; to APYLPSCLE [WT1 peptide P131-139 …], 1%.
